Earlier results, collected in publication PMC6757120.

Target: VEGF-A165 (Homo sapiens) (UniProt P15692)
Sequence of UniProt P15692 (P15692 whole entry): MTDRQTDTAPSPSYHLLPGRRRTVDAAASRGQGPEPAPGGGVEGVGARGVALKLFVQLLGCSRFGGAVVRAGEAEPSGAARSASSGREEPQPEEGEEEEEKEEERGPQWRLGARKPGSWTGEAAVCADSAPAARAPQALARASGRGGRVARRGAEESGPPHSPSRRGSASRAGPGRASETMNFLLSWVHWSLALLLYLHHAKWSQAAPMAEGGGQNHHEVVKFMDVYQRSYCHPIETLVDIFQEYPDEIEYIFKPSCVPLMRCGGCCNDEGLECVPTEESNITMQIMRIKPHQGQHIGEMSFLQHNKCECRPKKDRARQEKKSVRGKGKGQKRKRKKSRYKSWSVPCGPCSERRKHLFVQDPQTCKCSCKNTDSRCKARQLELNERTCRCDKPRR

For NRP1 (from UniProt O14786), the Kd is listed as 3 nM.
